# Assay results reported in patent US20090041755A1, “Methods and Compositions For PDGF-D Activation and Inhibition” (Ludwig Institute For Cancer Research, priority 2005, published 2009).
# Key:
# latent PDGF-CC = latent PDGF-CC (Homo sapiens, UniProt Q9NRA1); conditions: cited from earlier work
# [1] = target: chimeric PDGF-C/PDGF-D molecule with CUB domain from PDGF-C and growth factor domain from PDGF-D (UniProt Q9NRA1)
# [2] = target: chimeric PDGF-D/PDGF-C molecule with CUB domain from PDGF-D and growth factor domain from PDGF-C (UniProt Q9GZP0)
# Chain of chimeric PDGF-D/PDGF-C molecule with CUB domain from PDGF-D and growth factor domain from PDGF-C (Q9GZP0 other isoform, or with tags, fused parts or gaps mutant): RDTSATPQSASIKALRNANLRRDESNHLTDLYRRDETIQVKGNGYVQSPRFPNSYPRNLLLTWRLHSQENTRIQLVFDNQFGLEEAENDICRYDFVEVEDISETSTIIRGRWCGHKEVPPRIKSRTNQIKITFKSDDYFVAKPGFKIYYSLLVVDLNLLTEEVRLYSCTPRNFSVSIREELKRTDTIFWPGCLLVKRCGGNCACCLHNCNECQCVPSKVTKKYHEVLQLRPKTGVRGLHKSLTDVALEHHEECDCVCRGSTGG
# Chain of latent PDGF-CC (Q9NRA1 23-345): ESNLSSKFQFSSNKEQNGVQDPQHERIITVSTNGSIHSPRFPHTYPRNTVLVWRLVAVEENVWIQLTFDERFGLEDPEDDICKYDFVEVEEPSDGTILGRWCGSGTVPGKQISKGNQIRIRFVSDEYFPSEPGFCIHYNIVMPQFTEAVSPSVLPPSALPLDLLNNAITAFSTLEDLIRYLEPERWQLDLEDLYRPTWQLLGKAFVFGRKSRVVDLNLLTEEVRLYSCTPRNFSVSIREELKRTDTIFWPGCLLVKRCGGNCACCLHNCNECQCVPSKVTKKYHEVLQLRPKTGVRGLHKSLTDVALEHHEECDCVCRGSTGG
# Chain of chimeric PDGF-C/PDGF-D molecule with CUB domain from PDGF-C and growth factor domain from PDGF-D (Q9NRA1 whole entry, looked up, change not shown, the tested form may be a part): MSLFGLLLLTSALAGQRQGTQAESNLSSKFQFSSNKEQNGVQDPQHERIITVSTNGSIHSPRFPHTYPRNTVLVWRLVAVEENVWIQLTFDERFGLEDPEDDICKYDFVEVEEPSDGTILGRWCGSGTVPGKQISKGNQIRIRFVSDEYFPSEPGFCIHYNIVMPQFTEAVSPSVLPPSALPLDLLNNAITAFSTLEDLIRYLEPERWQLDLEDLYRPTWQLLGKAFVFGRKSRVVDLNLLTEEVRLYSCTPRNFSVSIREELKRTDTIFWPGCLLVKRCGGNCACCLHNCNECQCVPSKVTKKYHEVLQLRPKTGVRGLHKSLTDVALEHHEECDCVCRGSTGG
Substance,activation of latent PDGF-CC (latent PDGF-CC; Fredriksson et al. 2004),substrate specificity of the protease (latent PDGF-CC; PDGF-CC versus PDGF-DD),"proteolytic release of the growth factor domain (co-transfection, SDS-PAGE and immunoblot) [1]","proteolytic release of the growth factor domain (co-transfection, SDS-PAGE and immunoblot) [2]"
"tPA: tissue plasminogen activator, specific activator of PDGF-CC",activates latent PDGF-CC,specific for PDGF-CC,,
urokinase plasminogen activator (uPA),,,Analysis of all the PDGF-D/PDGF-C chimeric molecules revealed that no released growth factor domain could be visualized using specific antibodies,Analysis of all the PDGF-D/PDGF-C chimeric molecules revealed that no released growth factor domain could be visualized using specific antibodies
